According to patent US20190077860A1 (EISAI R AND D MANAGEMENT, published 2019):

T1: human EphA7 extracellular region-SEAP-His protein (human, UniProt Q15375 28-555)
T1 construct: extracellular domain; also called hEphA7-SEAP-His
T1 sequence (looked up): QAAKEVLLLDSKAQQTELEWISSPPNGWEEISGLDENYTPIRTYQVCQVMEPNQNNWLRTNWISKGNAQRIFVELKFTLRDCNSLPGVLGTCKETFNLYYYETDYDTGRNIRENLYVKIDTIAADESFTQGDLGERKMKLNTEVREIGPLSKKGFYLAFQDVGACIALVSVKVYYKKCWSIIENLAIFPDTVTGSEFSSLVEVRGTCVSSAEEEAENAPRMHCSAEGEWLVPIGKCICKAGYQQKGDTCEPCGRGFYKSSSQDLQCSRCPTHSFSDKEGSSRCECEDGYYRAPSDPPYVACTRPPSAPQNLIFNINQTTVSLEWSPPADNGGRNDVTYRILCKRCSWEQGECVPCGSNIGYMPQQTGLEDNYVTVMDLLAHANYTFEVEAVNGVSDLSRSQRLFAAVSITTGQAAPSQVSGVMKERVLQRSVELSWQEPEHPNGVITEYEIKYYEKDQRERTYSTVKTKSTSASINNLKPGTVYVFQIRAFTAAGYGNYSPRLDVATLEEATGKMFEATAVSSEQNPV

T2: human EphB2 extracellular region-SEAP-His protein (human, UniProt P29323 19-543)
T2 construct: extracellular domain; also called hEphB2-SEAP-His
T2 sequence (looked up): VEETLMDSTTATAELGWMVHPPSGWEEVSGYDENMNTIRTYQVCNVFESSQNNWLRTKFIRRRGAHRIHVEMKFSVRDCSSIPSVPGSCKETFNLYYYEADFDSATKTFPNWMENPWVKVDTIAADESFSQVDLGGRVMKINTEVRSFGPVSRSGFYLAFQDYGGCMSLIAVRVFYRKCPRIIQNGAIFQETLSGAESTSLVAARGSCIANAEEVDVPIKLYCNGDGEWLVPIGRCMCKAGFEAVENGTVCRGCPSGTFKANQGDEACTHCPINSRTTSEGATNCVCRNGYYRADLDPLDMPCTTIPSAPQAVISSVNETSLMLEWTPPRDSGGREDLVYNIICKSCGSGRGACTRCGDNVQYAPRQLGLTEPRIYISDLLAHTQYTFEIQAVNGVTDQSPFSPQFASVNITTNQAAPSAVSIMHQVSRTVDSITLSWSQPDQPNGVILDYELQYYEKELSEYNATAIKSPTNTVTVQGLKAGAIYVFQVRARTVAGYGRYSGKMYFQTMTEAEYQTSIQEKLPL

T3: human EphB1 extracellular region-SEAP-His protein (human, UniProt P54762 18-540)
T3 construct: extracellular domain; also called hEphB1-SEAP-His
T3 sequence (looked up): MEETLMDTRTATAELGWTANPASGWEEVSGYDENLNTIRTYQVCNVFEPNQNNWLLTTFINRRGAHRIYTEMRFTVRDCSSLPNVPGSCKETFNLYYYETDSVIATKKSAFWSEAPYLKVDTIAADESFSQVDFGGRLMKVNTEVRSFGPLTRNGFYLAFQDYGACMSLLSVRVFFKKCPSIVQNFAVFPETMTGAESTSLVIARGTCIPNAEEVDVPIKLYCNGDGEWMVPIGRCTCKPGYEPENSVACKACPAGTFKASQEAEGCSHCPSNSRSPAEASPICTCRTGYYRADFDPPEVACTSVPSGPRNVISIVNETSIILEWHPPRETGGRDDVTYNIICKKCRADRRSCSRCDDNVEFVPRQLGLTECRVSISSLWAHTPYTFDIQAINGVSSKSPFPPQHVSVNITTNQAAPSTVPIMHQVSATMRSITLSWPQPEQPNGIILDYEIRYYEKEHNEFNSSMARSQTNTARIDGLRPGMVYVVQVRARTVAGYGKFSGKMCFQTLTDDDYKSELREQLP

T4: human EphA6 extracellular region-SEAP-His protein (human, UniProt Q9UF33 23-550)
T4 construct: extracellular domain; also called hEphA6-SEAP-His
T4 sequence (looked up): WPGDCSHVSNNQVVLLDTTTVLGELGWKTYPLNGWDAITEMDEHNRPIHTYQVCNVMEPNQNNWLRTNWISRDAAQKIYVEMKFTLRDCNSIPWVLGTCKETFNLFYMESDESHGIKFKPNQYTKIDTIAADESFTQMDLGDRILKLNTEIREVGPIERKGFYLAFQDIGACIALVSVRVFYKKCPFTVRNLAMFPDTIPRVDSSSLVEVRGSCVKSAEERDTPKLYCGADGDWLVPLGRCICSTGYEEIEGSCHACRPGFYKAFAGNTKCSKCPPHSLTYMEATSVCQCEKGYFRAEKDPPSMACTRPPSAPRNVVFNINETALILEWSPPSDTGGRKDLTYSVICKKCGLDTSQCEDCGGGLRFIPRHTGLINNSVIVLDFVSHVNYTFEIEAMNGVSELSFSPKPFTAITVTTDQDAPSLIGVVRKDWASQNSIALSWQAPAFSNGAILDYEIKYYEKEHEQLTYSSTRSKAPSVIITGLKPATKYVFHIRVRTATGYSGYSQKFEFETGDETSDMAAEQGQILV


What was measured:
Assay in all cases: ELISA
[1] = biological target: T1, human EphA7 extracellular …
[2] = biological target: T2, human EphB2 extracellular …
[3] = biological target: T3, human EphB1 extracellular …
[4] = biological target: T4, human EphA6 extracellular …

| Binder | A450 as % of hEphA4-SEAP-His [1] | A450 as % of hEphA4-SEAP-His [2] | A450 as % of hEphA4-SEAP-His [3] | A450 as % of hEphA4-SEAP-His [4] |
| --- | --- | --- | --- | --- |
| humanized antibody No. 133 (antibody, human IgG2, human Ig kappa; also called L2-4/HA1) heavy: QVQLVQSGSELKKPGASVKVSCKASGYTFTDYSMHWVRQAPGQGLEWMGWINTETGEPTYAQGFTGRFVFSLDTSVSTAYLQISSLKAEDTAVYYCARIPLYYYGSRYWYFDVWGQGTTVTVSSASTKGPSVFPLAPSSRSTSESTAALGCLVKDYFPEPVTVSWNSGALTSGVHTFPAVLQSSGLYSLSSVVTVPSSNFGTQTYTCNVDHKPSNTKVDKTVERKSCVECPPCPAPPAAAPSVFLFPPKPKDTLMISRTPEVTCVVVDVSHEDPEVQFNWYVDGVEVHNAKTKPREEQFNSTFRVVSVLTVVHQDWLNGKEYKCKVSNKGLPAPIEKTISKTKGQPREPQVYTLPPSREEMTKNQVSLTCLVKGFYPSDIAVEWESNGQPENNYKTTPPMLDSDGSFFLYSKLTVDKSRWQQGNVFSCSVMHEALHNHYTQKSLSLSPG light: EIVMTQSPATLSVSPGERATLSCRASENIYRNLAWYQQKPGQSPRLLIYAATNLADGIPARFSGSGSGTEYTLTISSLQSEDFAVYYCQHFWGTPWTFGQGTKVEIKRTVAAPSVFIFPPSDEQLKSGTASVVCLLNNFYPREAKVQWKVDNALQSGNSQESVTEQDSKDSTYSLSSTLTLSKADYEKHKVYACEVTHQGLSSPVTKSFNRGEC | 4.6% | 4.6% | 4.6% | 8.8% |
| humanized antibody No. 94 (antibody, human IgG1, kappa, human Ig kappa; also called L2-4/HA2) heavy: QVQLVQSGSELKKPGASVKVSCKASGYTFTDYSMHWVRQAPGQGLKWMGWINTETGEPTYAQGFTGRFVFSLDTSVSTAYLQISSLKAEDTAVYYCARIPLYYYGSRYWYFDVWGQGTTVTVSSASTKGPSVFPLAPSSKSTSGGTAALGCLVKDYFPEPVTVSWNSGALTSGVHTFPAVLQSSGLYSLSSVVTVPSSSLGTQTYICNVNHKPSNTKVDKRVEPKSCDKTHTCPPCPAPPAAAPSVFLFPPKPKDTLMISRTPEVTCVVVDVSHEDPEVQFNWYVDGVEVHNAKTKPREEQFNSTFRVVSVLTVVHQDWLNGKEYKCKVSNKGLPAPIEKTISKTKGQPREPQVYTLPPSREEMTKNQVSLTCLVKGFYPSDIAVEWESNGQPENNYKTTPPMLDSDGSFFLYSKLTVDKSRWQQGNVFSCSVMHEALHNHYTQKSLSLSPG light: EIVMTQSPATLSVSPGERATLSCRASENIYRNLAWYQQKPGQSPRLLIYAATNLADGIPARFSGSGSGTEYTLTISSLQSEDFAVYYCQHFWGTPWTFGQGTKVEIKRTVAAPSVFIFPPSDEQLKSGTASVVCLLNNFYPREAKVQWKVDNALQSGNSQESVTEQDSKDSTYSLSSTLTLSKADYEKHKVYACEVTHQGLSSPVTKSFNRGEC | 6.1% | 7% | 6.7% | 8.6% |
| humanized antibody No. 136 (antibody, human IgG2, human Ig kappa; also called L2-4/HK2) heavy: QVQLVQSGSELKKPGASVKVSCKASGYTFTDYSMHWVRQAPGQGLKWMGWINTETGEPTYADDFKGRFVFSLDTSVSTAYLQISSLKAEDTAVYYCARIPLYYYGSRYWYFDVWGQGTTVTVSSASTKGPSVFPLAPSSRSTSESTAALGCLVKDYFPEPVTVSWNSGALTSGVHTFPAVLQSSGLYSLSSVVTVPSSNFGTQTYTCNVDHKPSNTKVDKTVERKSCVECPPCPAPPAAAPSVFLFPPKPKDTLMISRTPEVTCVVVDVSHEDPEVQFNWYVDGVEVHNAKTKPREEQFNSTFRVVSVLTVVHQDWLNGKEYKCKVSNKGLPAPIEKTISKTKGQPREPQVYTLPPSREEMTKNQVSLTCLVKGFYPSDIAVEWESNGQPENNYKTTPPMLDSDGSFFLYSKLTVDKSRWQQGNVFSCSVMHEALHNHYTQKSLSLSPG light: EIVMTQSPATLSVSPGERATLSCRASENIYRNLAWYQQKPGQSPRLLIYAATNLADGIPARFSGSGSGTEYTLTISSLQSEDFAVYYCQHFWGTPWTFGQGTKVEIKRTVAAPSVFIFPPSDEQLKSGTASVVCLLNNFYPREAKVQWKVDNALQSGNSQESVTEQDSKDSTYSLSSTLTLSKADYEKHKVYACEVTHQGLSSPVTKSFNRGEC | 5.4% | 5.3% | 5.2% | 7.2% |
| humanized antibody No. 135 (antibody, human IgG2, human Ig kappa; also called L2-4/HK1) heavy: QVQLVQSGSELKKPGASVKVSCKASGYTFTDYSMHWVRQAPGQGLEWMGWINTETGEPTYADDFKGRFVFSLDTSVSTAYLQISSLKAEDTAVYYCARIPLYYYGSRYWYFDVWGQGTTVTVSSASTKGPSVFPLAPSSRSTSESTAALGCLVKDYFPEPVTVSWNSGALTSGVHTFPAVLQSSGLYSLSSVVTVPSSNFGTQTYTCNVDHKPSNTKVDKTVERKSCVECPPCPAPPAAAPSVFLFPPKPKDTLMISRTPEVTCVVVDVSHEDPEVQFNWYVDGVEVHNAKTKPREEQFNSTFRVVSVLTVVHQDWLNGKEYKCKVSNKGLPAPIEKTISKTKGQPREPQVYTLPPSREEMTKNQVSLTCLVKGFYPSDIAVEWESNGQPENNYKTTPPMLDSDGSFFLYSKLTVDKSRWQQGNVFSCSVMHEALHNHYTQKSLSLSPG light: EIVMTQSPATLSVSPGERATLSCRASENIYRNLAWYQQKPGQSPRLLIYAATNLADGIPARFSGSGSGTEYTLTISSLQSEDFAVYYCQHFWGTPWTFGQGTKVEIKRTVAAPSVFIFPPSDEQLKSGTASVVCLLNNFYPREAKVQWKVDNALQSGNSQESVTEQDSKDSTYSLSSTLTLSKADYEKHKVYACEVTHQGLSSPVTKSFNRGEC | 5.2% | 5% | 5.1% | 7% |
| humanized antibody No. 137 (antibody, human IgG2, human Ig kappa; also called L2-4/HK4) heavy: QIQLVQSGSELKKPGASVKVSCKASGYTFTDYSMHWVRQAPGQGLKWMGWINTETGEPTYADDFKGRFVFSLDTSVSTAYLQISSLKAEDTAVYYCARIPLYYYGSRYWYFDVWGQGTTVTVSSASTKGPSVFPLAPSSRSTSESTAALGCLVKDYFPEPVTVSWNSGALTSGVHTFPAVLQSSGLYSLSSVVTVPSSNFGTQTYTCNVDHKPSNTKVDKTVERKSCVECPPCPAPPAAAPSVFLFPPKPKDTLMISRTPEVTCVVVDVSHEDPEVQFNWYVDGVEVHNAKTKPREEQFNSTFRVVSVLTVVHQDWLNGKEYKCKVSNKGLPAPIEKTISKTKGQPREPQVYTLPPSREEMTKNQVSLTCLVKGFYPSDIAVEWESNGQPENNYKTTPPMLDSDGSFFLYSKLTVDKSRWQQGNVFSCSVMHEALHNHYTQKSLSLSPG light: EIVMTQSPATLSVSPGERATLSCRASENIYRNLAWYQQKPGQSPRLLIYAATNLADGIPARFSGSGSGTEYTLTISSLQSEDFAVYYCQHFWGTPWTFGQGTKVEIKRTVAAPSVFIFPPSDEQLKSGTASVVCLLNNFYPREAKVQWKVDNALQSGNSQESVTEQDSKDSTYSLSSTLTLSKADYEKHKVYACEVTHQGLSSPVTKSFNRGEC | 5.8% | 5.6% | 5.8% | 7.1% |
